Legend:
[1] = tested on: advanced solid tumor malignancies; experiment: Ascending, multiple-dose clinical trial of intravenously administered mAb1 in patients with advanced cancer; type: in vivo
Description: This study was an open-label, ascending, multiple-dose study of mAb1 administered as an intravenous (IV) infusion (30 minutes) at doses of 1, 3, 6, 12 or 20 mg/kg once every 2 weeks. The study was conducted in patients with advanced solid tumor malignancies who have failed conventional therapy. The purpose of the study was to explore the safety, recommended dose (RD), pharmacokinetics (PK), pharmacodynamics (PD) and anti-tumor activity of mAb1 (also known as “H1H685P”).
Patients were screened to determine eligibility within 28 days prior to the first dose administration. Three patients were assigned to each of the five sequential cohorts (1, 3, 6, 12 or 20 mg/kg). Patients received mAb1 as a 30 minute IV infusion on Days 1 and 15 of each 4-week cycle (28 days). The dose of mAb1 was escalated until the recommended dose was determined, based on safety, tolerability, PK, PD testing and/or maximum tolerated dose (MTD). The MTD is defined as the highest dose at which less than 33% of patients experience dose-limiting toxicity (DLT) during the first cycle of therapy.
Six dose levels were planned for studying dose escalation. Starting at dose 1, a minimum of 3 patients was entered at each dose level. […] If no further cycle 1 DLT was observed, dose escalation proceeded to the next dose level. If two or more patients experienced a cycle 1 DLT, dose escalation was stopped and the previous lower dose level was expanded to 6 patients. Once the RD was determined, up to 10 additional patients were enrolled to evaluate safety and other biological/clinical effects. A separate cohort was planned for patients with hepatocellular carcinoma (HCC) where up to 10 patients were enrolled based on the eligibility criteria (listed below).
A DLT is defined by any of the following treatment-related events occurring during the first cycle (28 days) of study treatment: (1) Hematologic toxicity as evidenced by (a) Grade 3 or 4 neutropenia complicated by fever 38.5° C. or infection; (b) Grade 4 neutropenia of at least 7 days duration; (c) Grade 3 thrombocytopenia complicated by hemorrhage; or (d) Grade 4 thrombocytopenia; and/or (2) Non-hematologic toxicity as evidenced by (a) any Grade 4 non-hematologic toxicity; or (b) Grade 3 non-hematologic toxicities except fatigue, anorexia, nausea, vomiting or diarrhea that can be controlled by medication. Grade 3 laboratory changes that reflected tumor burden were not considered as DLT.
Safety was assessed throughout the study by monitoring Adverse Events and Serious Adverse Events.
For tumor assessment, a CT or MRI was performed at the screening visit (within 28 days prior to infusion) and during every even-numbered cycle (eg cycles 2, 4, 6, 8) between days 15 and 28 and when disease progression was suspected. Tumor assessment was performed according to Response Evaluation Criteria in Solid Tumors version 1.1 (RECIST version 1.1). RECIST criteria are developed to facilitate objective assessment of change in tumor burden such as tumor shrinkage and time to development of disease progression. RECIST guidelines are posted on the worldwide web at http://ctep(dot)cancer(dot)gov(slash)protocoldevelopment(slash)docs(slash)recist_guideline(dot)pdf. Tumor marker assessments were also collected, when available.
Blood samples were collected for RNA, serum cytokine testing, molecular profiling, anti-drug antibody (ADA) and serum mAb1 levels at screening and post-infusion on days 1, 2, 3, 8, 15 and 22 of cycle 1, and on day 1 of subsequent cycles. Tumor biopsies were obtained for immunohistochemistry studies for Ang-2. Results were scored as positive for Ang-2 in association with expression of endothelial cell CD31.

hAng-2-WT = target: T1, hAng-2-WT (Homo sapiens, UniProt O15123); experiment: SPR binding to wild-type human Ang-2 (Table 8)
T1 construct: wild-type human Ang-2 (hAng-2-WT)
T1 sequence (O15123 19-496): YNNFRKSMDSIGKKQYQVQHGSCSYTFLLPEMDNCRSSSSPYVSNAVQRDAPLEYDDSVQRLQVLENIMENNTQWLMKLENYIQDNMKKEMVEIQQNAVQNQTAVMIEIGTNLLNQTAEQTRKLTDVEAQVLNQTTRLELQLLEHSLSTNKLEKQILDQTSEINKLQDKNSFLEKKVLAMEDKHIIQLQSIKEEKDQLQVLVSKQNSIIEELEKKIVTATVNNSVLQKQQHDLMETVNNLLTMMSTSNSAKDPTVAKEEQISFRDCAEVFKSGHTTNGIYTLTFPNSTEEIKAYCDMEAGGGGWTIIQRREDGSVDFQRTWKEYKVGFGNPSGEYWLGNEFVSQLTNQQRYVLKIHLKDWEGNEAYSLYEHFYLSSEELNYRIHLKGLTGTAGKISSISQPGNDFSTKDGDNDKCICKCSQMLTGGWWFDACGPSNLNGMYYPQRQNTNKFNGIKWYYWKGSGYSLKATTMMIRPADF
Description: Equilibrium dissociation constants (KD values) for the binding of selected purified Ang-2 antibodies to dimeric fibrinogen-like domain of human (SEQ ID NO: 519), mouse (Mus musculus; SEQ ID NO: 520) and monkey (Macca fascicularis; SEQ ID NO: 521) Ang-2 (Ang-2FD) conjugated to human IgG1 (SEQ ID NO:528) were determined by surface kinetics using a real-time biosensor surface plasmon resonance assay. Antibody was captured on a goat anti-mouse IgG polyclonal antibody surface, a goat anti-human κ polyclonal antibody (Southern Biotech, Birmingham, Ala.) surface or a goat anti-human IgG polyclonal antibody (Jackson Immuno Research Lab, West Grove, Pa.) surface created through direct amine coupling to a BIACORE™ CM5 sensor chip to form a captured antibody surface. Varying concentrations (ranging from 50 nM to 6.25 nM) of protein were injected at 100 μl/min over captured antibody surface for 90 seconds. Antigen-antibody binding and dissociation were monitored in real time at room temperature. Kinetic analysis was performed to calculate KD and half-life of antigen/antibody complex dissociation.
In yet another experiment, KD values for selected purified antibodies that bind to wild-type human Ang-2 (hAng-2-WT; SEQ ID NO: 518) and the fibrinogen-like domain of human Ang2 (hAng-2FD) were determined (as described above).

Question: How did the “Positive ADA detected” value ([1]; 3 mg/kg) turn out when “H1H685P: human anti-Ang-2 antibody, HCVR/LCVR SEQ ID NOs 18/20; also referred to as mAb1 [Antibody H1H685P]” was run?
Answer: Its value is 1 patient.

Question: What about the “Confirmed sustained patient response (PR), duration” value ([1]; 1 patient with adrenocortical cancer treated at 1 mg/kg) of the same substance?
Answer: Its value is 16 wks.

Question: What about the “Stable disease (SD), patients evaluable for efficacy” value ([1]; 17 of 32 patients) of the same substance?
Answer: The value was 53%.

Question: And the “Total circulating serum Ang2 levels following treatment” value ([1]; all cohorts)?
Answer: Its value is “saturated”.

Question: And the “Maximum tolerated dose (MTD)” value ([1]; human, in vivo, iv)?
Answer: The value was “not reached”.

Question: What about the “Stable disease (SD), duration” value ([1]; one patient with thyroid cancer) of the same substance?
Answer: The value was 46 weeks.

Question: And the “Treatment-related adverse events (G½): abdominal distension” value ([1]; patients)?
Answer: The value was 11%.

Question: And the “Treatment-related adverse events (G½): decreased appetite” value ([1]; patients)?
Answer: The value was 11%.

Question: And the “Treatment-related adverse events (G½): diarrhea” value ([1]; patients)?
Answer: Its value is 14%.

Question: What about the “Treatment-related adverse events (G½): fatigue” value ([1]; patients) of the same substance?
Answer: The value was 19%.

Question: What about the “Treatment-related adverse events (G½): peripheral edema” value ([1]; patients) of the same substance?
Answer: The value was 17%.

Question: And the “≥Grade 3 TRAEs” value ([1]; patients)?
Answer: The value was “no ≥Grade 3 TRAEs”.

Question: And the “Stable disease (SD), duration range” value ([1]; patients evaluable for efficacy)?
Answer: The value was 3.3-46.8 weeks.

Question: And the Tolerability ([1]; patients with advanced cancer)?
Answer: Its Tolerability is “generally well tolerated”.

Question: What about the “Dose-limiting toxicities (DLTs)” value ([1]; patients, 1, 3, 6, 12 and 20 mg/kg IV every 2 weeks) of the same substance?
Answer: Its value is “No DLTs”.

Question: What about the “Pharmacokinetics (PK) across all dose levels” value ([1]; patients, IV) of the same substance?
Answer: Its value is “linear and dose-proportional”.

Question: And the Kd (hAng-2-WT)?
Answer: The Kd was 0.0476 nM.

Source: US9926369B2, “Methods for treating hepatocellular cancer by administering an anti-Ang-2 antibody” (Regeneron Pharmaceuticals, Inc., priority 2009, dated 2018)
